The assay has as its target T1, human LRP6-ECD-Fc (human, UniProt O75581 20-1370).
T1 sequence (looked up): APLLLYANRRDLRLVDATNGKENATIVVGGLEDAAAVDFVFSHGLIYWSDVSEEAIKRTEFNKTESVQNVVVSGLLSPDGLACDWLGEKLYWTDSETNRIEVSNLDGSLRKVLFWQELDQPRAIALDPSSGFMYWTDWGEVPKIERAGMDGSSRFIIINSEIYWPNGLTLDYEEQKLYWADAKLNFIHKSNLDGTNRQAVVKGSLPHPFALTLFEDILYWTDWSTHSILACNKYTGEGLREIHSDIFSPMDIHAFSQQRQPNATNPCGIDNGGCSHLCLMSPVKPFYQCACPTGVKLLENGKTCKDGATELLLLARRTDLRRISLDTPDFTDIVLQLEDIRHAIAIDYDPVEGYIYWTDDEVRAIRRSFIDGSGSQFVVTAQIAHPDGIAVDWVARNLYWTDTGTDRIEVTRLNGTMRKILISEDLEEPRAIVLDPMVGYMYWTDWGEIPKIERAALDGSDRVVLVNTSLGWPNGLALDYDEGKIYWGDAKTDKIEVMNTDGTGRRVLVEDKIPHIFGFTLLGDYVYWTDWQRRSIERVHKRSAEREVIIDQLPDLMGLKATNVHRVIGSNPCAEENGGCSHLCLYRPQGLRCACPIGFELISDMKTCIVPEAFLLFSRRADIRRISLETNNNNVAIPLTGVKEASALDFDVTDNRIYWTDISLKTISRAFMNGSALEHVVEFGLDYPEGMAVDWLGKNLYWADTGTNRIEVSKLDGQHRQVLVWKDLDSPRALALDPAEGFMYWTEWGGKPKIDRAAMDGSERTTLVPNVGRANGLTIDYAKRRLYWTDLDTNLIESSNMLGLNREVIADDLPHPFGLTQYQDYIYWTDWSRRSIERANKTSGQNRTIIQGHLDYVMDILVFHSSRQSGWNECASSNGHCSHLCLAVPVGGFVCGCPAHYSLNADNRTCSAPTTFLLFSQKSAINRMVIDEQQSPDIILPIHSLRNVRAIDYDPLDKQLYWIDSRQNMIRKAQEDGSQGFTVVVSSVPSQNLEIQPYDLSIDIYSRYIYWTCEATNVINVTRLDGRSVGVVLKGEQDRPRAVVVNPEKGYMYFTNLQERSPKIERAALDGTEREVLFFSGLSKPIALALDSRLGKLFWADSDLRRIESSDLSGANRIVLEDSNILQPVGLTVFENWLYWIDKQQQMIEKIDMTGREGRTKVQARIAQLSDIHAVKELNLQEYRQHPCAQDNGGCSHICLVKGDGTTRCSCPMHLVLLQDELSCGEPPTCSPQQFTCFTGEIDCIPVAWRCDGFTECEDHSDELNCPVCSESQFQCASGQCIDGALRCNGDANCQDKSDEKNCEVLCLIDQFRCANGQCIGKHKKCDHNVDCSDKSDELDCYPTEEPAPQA
The assay can be described thus: BLI.

B1: recombinant human Wnt3a (ligand, UniProt P56704 19-352, looked up)
chain: SYPIWWSLAVGPQYSSLGSQPILCASIPGLVPKQLRFCRNYVEIMPSVAEGIKIGIQECQHQFRGRRWNCTTVHDSLAIFGPVLDKATRESAFVHAIASAGVAFAVTRSCAEGTAAICGCSSRHQGSPGKGWKWGGCSEDIEFGGMVSREFADARENRPDARSAMNRHNNEAGRQAIASHMHLKCKCHGLSGSCEVKTCWWSQPDFRAIGDFLKDKYDSASEMVVEKHRESRGWVETLRPRYTYFKVPTERDLVYYEASPNFCEPNPETGSFGTRDRTCNVSSHGIDGCDLLCCGRGHNARAERRREKCRCVFHWCCYVSCQECTRVYDVHTCK
On to B1, for which the binding result is “binds”.

The values above are taken from article doi:10.1101/2022.09.25.509440 (bioRxiv, 2022).
